Test results taken from US20050079574A1 (Genentech, published 2005).
Changes are numbered by the printed parent chain. Names may count otherwise.

B1: RIG scaffold (VHH) (VHH)
VHH: DVQLQESGGGLVQAGGSLRLSCAASGRTGSTYDMGWFRQAPGKERESVAAINWDSARTYYASSVRGRFTISRDNAKKTVYLQMNSLKPEDTAVYTCGAGRIGRSVFNLRRESWVTWWGQGTQVTVSSAGGMDYKDDDDK
notes: also called RIG-Parent Scaffold; RIG VHH domain
B2: RIG scaffold alanine point mutant S100A (VHH, name in Kabat numbering)
VHH: B1 VHH with S104A
B3: RIG scaffold alanine point mutant V100jA (VHH, name in Kabat numbering)
VHH: B1 VHH with V114A
B4: RIG scaffold with mutation T57E (VHH, name in Kabat numbering)
VHH: B1 VHH with T58E
B5: RLV scaffold (VHH) (VHH)
VHH: DVQLQESGGGLVQAGGSLRLSCAASGRTGSTYDMGWFRQAPGKERESVAAINWDSARTYYASSVRGRFTISRDNAKKTVYLQMNSLKPEDTAVYTCGAGRLVNGLSGLVSWEMPLAWGQGTQVTVSSAGGMDYKDDDDK
B6: llama anti-HCG monobody variable heavy chain (VHH), wild type (VHH)
VHH: DVQLQESGGGLVQAGGSLRLSCAASGRTGSTYDMGWFRQAPGKERESVAAINWDSARTYYASSVRGRFTISRDNAKKTVYLQMNSLKPEDTAVYTCGAGEGGTWDSWGQGTQVTVSSAGGMDYKDDDDK
notes: also called wild type anti-HCG scaffold; llama a-HCG
B7: VLK scaffold (VHH) (VHH)
VHH: DVQLQESGGGLVQAGGSLRLSCAASGRTGSTYDMGWFRQAPGKERESVAAINWDSARTYYASSVRGRFTISRDNAKKTVYLQMNSLKPEDTAVYTCGAGVLKRRGSSVAIFTRVQSWGQGTQVTVSSAGGMDYKDDDDK
B8: LLR scaffold (VHH) (VHH)
VHH: DVQLQESGGGLVQAGGSLRLSCAASGRTGSTYDMGWFRQAPGKERESVAAINWDSARTYYASSVRGRFTISRDNAKKTVYLQMNSLKPEDTAVYTCGAGLLRRGVNATPNWFGLVGWGQGTQVTVSSAGGMDYKDDDDK

These binders were tested against T1, Protein A (UniProt P38507 37-477) (assay: BiaCore, Protein A on CM5 chip).
T1 construct: also called Protein A (Sigma)

In order of rising Kd:
1. B2  600 nM
2. B1  800 nM
3. B3  800 nM

The binders below were run against T1, Protein A (assay: Biacore).

B4: no binding.

What follows are binders tested against T1, Protein A (assay: BiaCore 3000, Protein A on CM5 chip, steady state fit).
Description: The affinity for Protein A for each of the individual clones was determined using a BiaCore 3000. Protein A was coated onto CM5 chip, as was BSA and VEGF. The latter two proteins were used as negative controls. Binding isotherms were calculated the steady state response differentials for a series of protein concentrations. The equilibrium dissociation constant (Kd) was determined by fitting the resulting curves (KaleidaGraph, Synergy Software) to the following equation: Ra=[…](Rmax−Rmin)/((1+C/Kd)ⁿ) Where “Ra” is the measured response differential, “Rmax” is the maximal response differential, “Rmin” the minimal response differential and “C” is the ligand concentration. Analysis of NNS Library

In order of rising Kd:
1. B1  800 nM
2. B7  900 nM
3. B6  1600 nM
4. B5  1800 nM
5. B8  3300 nM
